According to paper PMC4333378, “Human PrimPol is a highly error-prone polymerase regulated by single-stranded DNA binding proteins” (Nucleic Acids Research, 2014):

T1: full-length human PrimPol (recombinant) (human, UniProt Q96LW4 1-560)
T1 construct: also called wild-type PrimPol
T1 sequence (looked up): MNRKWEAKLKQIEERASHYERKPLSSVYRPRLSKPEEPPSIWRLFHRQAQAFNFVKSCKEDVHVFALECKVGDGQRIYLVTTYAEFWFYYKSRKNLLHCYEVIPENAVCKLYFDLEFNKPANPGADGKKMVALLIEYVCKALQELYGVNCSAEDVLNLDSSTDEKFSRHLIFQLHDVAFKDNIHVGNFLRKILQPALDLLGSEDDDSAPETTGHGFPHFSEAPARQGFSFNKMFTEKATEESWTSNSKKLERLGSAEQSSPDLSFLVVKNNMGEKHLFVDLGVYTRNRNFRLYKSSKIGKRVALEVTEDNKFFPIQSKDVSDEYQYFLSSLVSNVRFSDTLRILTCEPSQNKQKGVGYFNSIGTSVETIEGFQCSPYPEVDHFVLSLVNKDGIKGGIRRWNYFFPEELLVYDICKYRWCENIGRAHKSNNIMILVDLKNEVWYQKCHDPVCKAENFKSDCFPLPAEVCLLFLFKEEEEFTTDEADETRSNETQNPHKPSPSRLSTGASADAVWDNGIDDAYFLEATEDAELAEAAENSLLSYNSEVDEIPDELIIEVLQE

T2: mtSSB (human, UniProt Q04837 17-148)
T2 sequence: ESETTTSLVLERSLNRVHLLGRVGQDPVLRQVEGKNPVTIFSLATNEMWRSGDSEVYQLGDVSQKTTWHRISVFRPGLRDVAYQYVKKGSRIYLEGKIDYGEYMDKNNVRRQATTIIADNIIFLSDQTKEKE


Experiments:
[1] = target: T1, full-length human PrimPol (recombinant); assay: NMR titration; 15N-1H HSQC of 15N-enriched RPA domain (50 uM RPA70N) alone and with 2-fold molar excess (100 uM) of unlabelled PrimPol construct; 25°C; 20 mM HEPES, 80 mM NaCl, 2 mM DTT, 5% deuterium oxide, pH 7.1; conditions: both partners purified
mtSSB = target: T2, mtSSB; assay: EMSA; 10 mM Mg acetate; full shift at less than half the amount needed for RPA; super-shifted bands = multiple SSBs bound; EMSA: 50 mM K acetate, 20 mM Tris-acetate pH 7.9, 10 mM Mg acetate, 1 mM DTT, 60 nM FAM-ssDNA, 60 min at room temperature; 5% native PAGE in 0.5x TBE; conditions: protein: recombinant; chain copies: 4; label: 5'-FAM (fluorescein); single strand
[2] = target: RPA (replication protein A) (human, UniProt P27694;P15927;P35244 1-616;1-270;1-121); assay: EMSA; 10 mM Mg acetate; SSB/oligo 0-16; more than twice as much RPA as mtSSB needed to fully shift; super-shifted bands = multiple SSBs bound; EMSA: 50 mM K acetate, 20 mM Tris-acetate pH 7.9, 10 mM Mg acetate, 1 mM DTT, 60 nM FAM-ssDNA, 60 min at room temperature; 5% native PAGE in 0.5x TBE; conditions: protein: recombinant; copies: 1;1;1; label: 5'-FAM (fluorescein); single strand
Sequence of RPA (replication protein A) (P15927 whole entry, chain 2 of 2): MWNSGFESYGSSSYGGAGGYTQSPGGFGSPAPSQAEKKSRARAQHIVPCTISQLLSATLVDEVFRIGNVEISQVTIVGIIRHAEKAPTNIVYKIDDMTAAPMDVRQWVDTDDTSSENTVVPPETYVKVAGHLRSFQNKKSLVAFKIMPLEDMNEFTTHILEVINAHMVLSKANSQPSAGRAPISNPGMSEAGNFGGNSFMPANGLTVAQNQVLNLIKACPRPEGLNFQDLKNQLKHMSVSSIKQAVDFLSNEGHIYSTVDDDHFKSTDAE
Sequence of RPA (replication protein A) (P35244 whole entry, chain 3 of 2): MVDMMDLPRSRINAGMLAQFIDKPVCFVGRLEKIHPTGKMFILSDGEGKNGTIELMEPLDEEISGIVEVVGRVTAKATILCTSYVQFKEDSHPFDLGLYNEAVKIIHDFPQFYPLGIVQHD

Row | binding result [1] | Binder | binding result (mtSSB) | binding result [2]
1 | binds | RPA70N^1–120 (DBD-N of RPA1, N-terminal domain of RPA70) (domain or fragment, human, UniProt P27694 1-120, looked up, 15N-enriched, RPA70 (RPA1) residues 1-120, N-terminal protein recruitment domain) MVGQLSEGAIAAIMQKGDTNIKPILQVINIRPITTGNSPPRYRLLMSDGLNTLSSFMLATQLNPLVEEEQLSSNCVCQIHRFIVNTLKDGRRVVILMELEVLKSAEAVGVKIGNPVPYNE |  | 
2 |  | CGCGCAGGGCGCACAACAGCCTTGAAGACCGAACGACCGAACAGACGACA (ssDNA) [ND-50 ssDNA Template (sequence 16)] | binds | binds
